Assay results published in patent US20250290928A1, “METHOD, KIT AND DEVICE FOR DETECTING EXTRACELLULAR VESICLES” (priority 2022, published 2025).
No end group written: not given here. *: point of attachment. 5FAM = O=C1OC2(c3ccc(O)cc3Oc3cc(O)ccc32)c2ccc(C(=O)*)cc21; TQ2 = quencher; TQ3 = quencher

How the values were obtained:
[1] = target: T1, MMP14 in the MDA-MB-231-derived extracellular vesicles (Homo sapiens, UniProt P50281); test: Evaluation of MMP14 activity of MDA-MB-231-derived extracellular vesicles with 96-well plate; format: biochemical; details: for reaction rate per 1 μg/mL of extracellular vesicles: within 1 hour
T1 construct: in terms of intact MMP14 with a molecular weight of 70 kDa
Procedure: A relative fluorescence unit difference ΔRFU was calculated by subtracting the measured value of the sample for BG measurement from the measured value of each of the samples.
The concentration of the solution is 41.7 μg/mL. The concentration of the solution was set to x1, and 2-fold serial dilution was performed to prepare standard samples with six concentrations.
50 μL of the MMP14 detection solution was added to 50 μL of each of the samples, a reaction was performed at 37° C., and MMP14 activity was evaluated.
The concentration of the solution is 10 μg/mL.
50 μL of each of the MMP14 detection solutions was added to 50 μL of each of the samples, a reaction was performed at 37° C., and MMP14 activity was evaluated. […]
The concentration of the solution is 20 μg/mL. The concentration of the solution was set to x1, and 3-fold serial dilution was performed to prepare standard samples with three concentrations.
The concentration of the solution is 8 μg/mL.
50 μL of each of the MMP14 detection solutions was added to 50 μL of the sample, a reaction was performed at 37° C., and MMP14 activity was evaluated. […]
50 μL of the MMP14 detection solution was added to 50 μL of each of the samples, a reaction was performed at 30° C., and MMP14 activity was evaluated.
The MMP14 activity of the extracellular vesicles was evaluated with a 96-well plate (137101). A fluorescence intensity was measured with a fluorescence plate reader (Synergy) at 30° C. every 5 minutes for 2 hours. For measurement wavelengths, an excitation wavelength of 545±20 nm and a fluorescence wavelength of 588±20 nm were used. A relative fluorescence unit difference (ΔRFU) was calculated by subtracting the measured value of the sample for BG measurement from the measured value of each of the samples.
50 μL of each of the MMP14 detection solutions was added to 50 μL of each of the samples, a reaction was performed at 30° C., and MMP14 activity was evaluated.

[2] = target: T1, MMP14 in the MDA-MB-231-derived extracellular vesicles; test: Digital detection of MDA-MB-231-derived extracellular vesicles through MMP14 activity in wells (microcompartments); format: biochemical; details: for Expected value λ (×1): at EV concentration x1
Procedure: The concentration of the solution is 6.7 μg/mL.
100 μL of the MMP14 detection solution was added to 100 μL of the sample to provide a reaction solution for wells. […] 100 μL of 200 μL of the prepared reaction solution for wells was used in the measurement of MMP14 activity with a 96-well plate.
Next, the wells were filled with the reaction solution by leaving the well array 200 to stand under reduced pressure to degas the space 205. After that, the space 205 was fed with hydrophobic solvents to be sealed. Fluorinated oils AsahiKlin AE-3000 (manufactured by AGC Inc.) and Fomblin Y-25 (manufactured by Solvay S.A.) were used as the hydrophobic solvents. A fluorinated oil Simoa (trademark) SR-X Sealing Oil: 102767 (manufactured by Quanterix Corporation) was further used as another hydrophobic solvent.
Well diameter: 4.25 μm Well depth: 3.25 μm Well capacity: 50 fL Number of wells in array: 239,000 Array range: 3 mm×4 mm
The concentration of the solution is 20 μg/mL. […] The concentration of the solution was set to x1, and 10-fold serial dilution was performed to prepare standard samples with five concentrations.
Next, the wells were filled with the reaction solution by leaving the well array 200 to stand under reduced pressure to degas the space 205. After that, the space 205 was fed with hydrophobic solvents to be sealed.
The concentration of the solution is 20 μg/mL. […] The concentration of the solution was set to x1, and 3-fold serial dilution was performed to prepare standard samples with three concentrations.
The concentration of the solution is 20 μg/mL. […] The concentration of the solution was set to x1, and 2-fold serial dilution was performed to prepare standard samples with four concentrations.
The concentration of the solution is 5 μg/mL.
50 μL of the MMP14 detection solution was added to 50 μL of the sample to provide a reaction solution for wells.
50 μL of each of the MMP14 detection solutions was added to 50 μL of the sample to provide a reaction solution for wells.
The concentration of the solution is 6.7 µg/mL.

[3] = Example 42, EV 2.5 μg/mL, reporter 5 μM, 30° C., 4 hr, TRITC filter
[4] = Example 42, EV 2.5 μg/mL, reporter 5 μM, 30° C., 24 hr, TRITC filter
[5] = Example 9, EV 4 μg/mL, buffer (3), 37° C., Lineweaver-Burk plots
[6] = Example 18, 78.5 fL wells, EV 3.3 μg/mL, reporter 5 μM, 37° C., 3 hours, oil AE-3000 and Y25
[7] = Example 18, 78.5 fL wells, EV 3.3 μg/mL, reporter 5 μM, 37° C., 3 hours, oil Simoa
[8] = Example 19, 37° C., 3 h, EV 0.0001 a.u. (x1=10 μg/mL)
[9] = Example 19, 37° C., 3 h, EV 0.001 a.u. (x1=10 μg/mL)
[10] = Example 19, 37° C., 3 h, EV 0.01 a.u. (x1=10 μg/mL)
[11] = Example 19, 37° C., 3 h, EV 0.1 a.u. (x1=10 μg/mL)
[12] = Example 19, 37° C., 3 h, EV 1 a.u. (x1=10 μg/mL)
[13] = Example 19, 37° C., 7 h, EV 0.0001 a.u. (x1=10 μg/mL)
[14] = Example 19, 37° C., 7 h, EV 0.001 a.u. (x1=10 μg/mL)
[15] = Example 19, 37° C., 7 h, EV 0.01 a.u. (x1=10 μg/mL)
[16] = Example 19, 37° C., 7 h, EV 0.1 a.u. (x1=10 μg/mL)
[17] = Example 19, 37° C., 7 h, EV 1 a.u. (x1=10 μg/mL)
[18] = Example 22, buffer (2), 37° C., 1 h, EV 0 (free of extracellular vesicles)
[19] = Example 22, buffer (2), 37° C., 1 h, EV 0.111 a.u.
[20] = Example 22, buffer (2), 37° C., 1 h, EV 0.333 a.u.
[21] = Example 22, buffer (2), 37° C., 1 h, EV 1 a.u. (x1=10 μg/mL)
[22] = Example 22, buffer (2), 37° C., 2 h, EV 0 (free of extracellular vesicles)
[23] = Example 22, buffer (2), 37° C., 2 h, EV 0.111 a.u.
[24] = Example 22, buffer (2), 37° C., 2 h, EV 0.333 a.u.
[25] = Example 22, buffer (2), 37° C., 2 h, EV 1 a.u. (x1=10 μg/mL)

TAMRA-GGPLGLAGGK(TQ3) ({TAMRA}-GGPLGLAGGK(TQ3)) [Custom #2T]
Fluorescence change after 2 hours of reaction at 30° C. ([1]; Example 41, EV 5 μg/mL, reporter 5 μM, buffer (4), excitation 545±20 nm, fluorescence 588±20 nm): 6,455 ΔRFU
Fluorescence change after 2 hours of reaction at 30° C. ([1]; MP, 1.25 μM #2T with 1.25 μM #1, EV 3.3 μg/mL): 1,015 ΔRFU
Fluorescence change after 2 hours of reaction at 30° C. ([1]; MP, 1.25 μM #2T with 1.25 μM #2, EV 3.3 μg/mL): 1,734 ΔRFU
Fluorescence change after 2 hours of reaction at 30° C. ([1]; MP, 2.5 μM #2T with 2.5 μM #1, EV 3.3 μg/mL): 1,118 ΔRFU
Fluorescence change after 2 hours of reaction at 30° C. ([1]; MP, 2.5 μM #2T with 2.5 μM #2, EV 3.3 μg/mL): 2,196 ΔRFU
Expected value λ [2, 3]: 0.1255
Number of positives [2, 3]: 3,313
Positive ratio [2, 3]: 0.118
Expected value λ [2, 4]: 0.1339
Number of positives [2, 4]: 3,518
Positive ratio [2, 4]: 0.1253
Expected value λ (×1) ([2]; single reporter, reaction 4 hr): 0.5022
Extracellular vesicle concentration ([2]; single reporter, reaction 4 hr, at x1, from λ (×1) and 50 fL microcompartment): 1.0044e+10 mL⁻¹
Expected value λ (×1) ([2]; single reporter, reaction 24 hr): 0.5354
Extracellular vesicle concentration ([2]; single reporter, reaction 24 hr, at x1, from λ (×1) and 50 fL microcompartment): 1.0709e+10 mL⁻¹

[5-FAM]GGPLGLAGGK(TQ2)[OH] (5FAM-GGPLGLAGGK(TQ2)-OH) [Custom #2]
increase in fluorescence intensity (temporal change) ([1]; Example 4, EV 5 μg/mL, reporter 5 μM, 37° C., Assay buffer (Component D)): more significant than that from SensoLyte 520 MMP-14
reaction rate per 1 μg/mL of extracellular vesicles ([1]; Example 5, Assay buffer (Component D) of SensoLyte 520 MMP-14 Assay Kit, reporter 5 μM, 37° C.): 83.3 ΔRFU/min
reaction rate per 1 μg/mL of extracellular vesicles ([1]; Example 8, buffer (2), reporter 5 μM, 37° C.): 99.0 ΔRFU/min
Km [1, 5]: 0.511 µM
Vmax [1, 5]: 582.411 ΔRFU/min
extracellular vesicle concentration at which MMP14 activity was able to be detected with a 96-well plate ([1]; buffer (4), reporter 5 μM, 37° C.): ≥ 1 µg/mL
Expected value λ [2, 6]: 0.235
Number of positives [2, 6]: 3,094
Positive ratio [2, 6]: 0.21
Expected value λ [2, 7]: 0.188
Number of positives [2, 7]: 2,529
Positive ratio [2, 7]: 0.171
Extracellular vesicle concentration ([2]; Example 18, oil AE-3000 and Y25): 9.1×10^8 /μg of protein
Extracellular vesicle concentration ([2]; Example 18, oil AE-3000 and Y25, reaction solution 3.3 μg of protein/mL): 3e+09 mL⁻¹
Extracellular vesicle concentration ([2]; Example 18, oil Simoa): 7.3×10^8 /μg of protein
Extracellular vesicle concentration ([2]; Example 18, oil Simoa, reaction solution 3.3 μg of protein/mL): 2.4e+09 mL⁻¹
Expected value λ [2, 8]: 0.000138
Number of positives [2, 8]: 4
Positive ratio [2, 8]: 0.000138
Expected value λ [2, 9]: 0.0011
Number of positives [2, 9]: 32
Positive ratio [2, 9]: 0.0011
Expected value λ [2, 10]: 0.00915
Number of positives [2, 10]: 264
Positive ratio [2, 10]: 0.00911
Expected value λ [2, 11]: 0.0827
Number of positives [2, 11]: 2,305
Positive ratio [2, 11]: 0.0794
Expected value λ [2, 12]: 0.717
Number of positives [2, 12]: 14,539
Positive ratio [2, 12]: 0.512
Expected value λ [2, 13]: 0.000104
Number of positives [2, 13]: 3
Positive ratio [2, 13]: 0.000104
Expected value λ [2, 14]: 0.000828
Number of positives [2, 14]: 24
Positive ratio [2, 14]: 0.000828
Expected value λ [2, 15]: 0.0092
Number of positives [2, 15]: 263
Positive ratio [2, 15]: 0.00916
Expected value λ [2, 16]: 0.0929
Number of positives [2, 16]: 2,571
Positive ratio [2, 16]: 0.0887
Expected value λ [2, 17]: 2.33
Number of positives [2, 17]: 26,093
Positive ratio [2, 17]: 0.902
Extracellular vesicle concentration ([2]; Example 19, 3 hours): 1.3×10^9 /μg of protein
Extracellular vesicle concentration ([2]; Example 19, 3 hours, reaction solution 10 μg of protein/mL, 50 fL): 1.3e+10 mL⁻¹
extracellular vesicles in which MMP14 activity can be detected, contained in 1 μL of the extracellular vesicles (50 μg of protein in 50 μL of PBS) ([2]; Example 19, 7 hours): 1.8×10^9
Extracellular vesicle concentration ([2]; Example 19, 7 hours, reaction solution 10 μg of protein/mL, 50 fL): 1.8e+10 mL⁻¹
λ at x1 from the approximation ([2]; Example 19, reaction time of 3 hours): 0.6727
λ at x1 from the approximation ([2]; Example 19, reaction time of 7 hours): 0.8756
expected value λ at x1 (power approximation) ([2]; Example 22, after 1 hour): 0.5098
expected value λ at x1 (power approximation) ([2]; Example 22, after 2 hours): 0.7649
Expected value λ [2, 18]: 0
Number of positives [2, 18]: 0
Positive ratio [2, 18]: 0
Expected value λ [2, 19]: 0.0648
Number of positives [2, 19]: 1,819
Positive ratio [2, 19]: 0.0627
Expected value λ [2, 20]: 0.193
Number of positives [2, 20]: 5,094
Positive ratio [2, 20]: 0.176
Expected value λ [2, 21]: 0.497
Number of positives [2, 21]: 11,360
Positive ratio [2, 21]: 0.392
Expected value λ [2, 22]: 0
Number of positives [2, 22]: 0
Positive ratio [2, 22]: 0
Expected value λ [2, 23]: 0.0988
Number of positives [2, 23]: 2,727
Positive ratio [2, 23]: 0.0941
Expected value λ [2, 24]: 0.267
Number of positives [2, 24]: 6,788
Positive ratio [2, 24]: 0.234
Expected value λ [2, 25]: 0.774
Number of positives [2, 25]: 15,608
Positive ratio [2, 25]: 0.539
extracellular vesicle concentration at which MMP14 activity was able to be detected in the microcompartments ([2]; Simoa Discs, buffer (4), reporter 5 μM, 37° C.): ≥ 1 ng/mL
